T1: human MerTK (human, UniProt Q12866 26-499)
T1 construct: also called HuMER
T1 sequence: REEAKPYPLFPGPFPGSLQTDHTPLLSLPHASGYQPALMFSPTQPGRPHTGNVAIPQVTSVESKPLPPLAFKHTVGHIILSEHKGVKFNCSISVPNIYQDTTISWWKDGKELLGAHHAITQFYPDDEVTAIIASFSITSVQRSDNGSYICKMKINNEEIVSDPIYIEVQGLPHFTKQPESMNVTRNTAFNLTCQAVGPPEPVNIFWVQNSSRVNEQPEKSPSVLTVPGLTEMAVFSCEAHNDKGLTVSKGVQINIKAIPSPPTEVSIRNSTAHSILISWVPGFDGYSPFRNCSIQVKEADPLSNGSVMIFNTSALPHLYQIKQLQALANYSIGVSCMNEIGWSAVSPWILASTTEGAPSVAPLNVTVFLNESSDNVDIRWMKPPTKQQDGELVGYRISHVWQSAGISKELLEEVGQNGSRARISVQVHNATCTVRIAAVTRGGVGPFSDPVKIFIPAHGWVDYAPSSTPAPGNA


molecular target: T1, human MerTK; assay: SPR BIAcore T200, Ab captured, 37C
Experimental: Each humanized mutation variant was subject to BIAcore analysis to determine the important rabbit residues for binding and stability. Binding affinity determinations were obtained using Surface Plasmon Resonance (SRP) measurements from a BIAcore™-T200 instrument. Briefly, each humanized mutation variant antibody was captured to achieve approximately 100 RU (Response Units). Then, 3-fold serial dilutions of human MerTK (0.4 nM to 100 nM) diluted in HBS-EP buffer (0.01M HEPES pH 7.4, 0.15M NaCl, 3 mM EDTA and 0.05% v/v surfactant P20) was injected into the BIAcore™-T200 instrument at 37° C. with a flow rate of 30 μl/min. Association rates (kₒₙ) and dissociation rates (koff) were calculated using a simple one-to-one Langmuir binding model (BIAcore T200 evaluation software version 2.0). The equilibrium dissociation constant (KD) was calculated as the ratio koff/kₒₙ.

Row | Binder | Kd [nM]
1 | h10F7.V1 HC F91Y (antibody, name in Kabat numbering, V domains shown, Framework variant of h10F7.v1 (human IgG1)) VH: EQQLVESGGGLVQPGGSLRLSCAVSGFSLSGYAMSWVRQAPGKGLEYIGVISSSGSSYYPSWAKGRFTISKDSSKNTVYLQMGSLRAEDMAVYYCARVQFYVGYAVYGYGIIDRLDLWGQGTLVTVSS VL: DAVLTQSPDSLAVSLGERATINCQSSKSVYNNNWLSWYQQKPGQPPKLLIYRASTLESGVPDRFSGSGSGTDFTLTISSLQAEDVAVYFCAGGYSSSSSANAFGGGTKVEIK | 6.4
2 | h10F7.V1 HC I48V (antibody, human IgG1, name in Kabat numbering, V domains shown, Framework variant of h10F7.v1 (human IgG1)) VH: EQQLVESGGGLVQPGGSLRLSCAVSGFSLSGYAMSWVRQAPGKGLEYVGVISSSGSSYYPSWAKGRFTISKDSSKNTVYLQMGSLRAEDMAVYFCARVQFYVGYAVYGYGIIDRLDLWGQGTLVTVSS VL: DAVLTQSPDSLAVSLGERATINCQSSKSVYNNNWLSWYQQKPGQPPKLLIYRASTLESGVPDRFSGSGSGTDFTLTISSLQAEDVAVYFCAGGYSSSSSANAFGGGTKVEIK | 9.3
3 | h10F7.V1 HC G49S (antibody, human IgG1, name in Kabat numbering, V domains shown, Framework variant of h10F7.v1 (human IgG1)) VH: EQQLVESGGGLVQPGGSLRLSCAVSGFSLSGYAMSWVRQAPGKGLEYISVISSSGSSYYPSWAKGRFTISKDSSKNTVYLQMGSLRAEDMAVYFCARVQFYVGYAVYGYGIIDRLDLWGQGTLVTVSS VL: DAVLTQSPDSLAVSLGERATINCQSSKSVYNNNWLSWYQQKPGQPPKLLIYRASTLESGVPDRFSGSGSGTDFTLTISSLQAEDVAVYFCAGGYSSSSSANAFGGGTKVEIK | 9.5
4 | h10F7.V1 HC K71R (antibody, human IgG1, name in Kabat numbering, V domains shown, Framework variant of h10F7.v1 (human IgG1)) VH: EQQLVESGGGLVQPGGSLRLSCAVSGFSLSGYAMSWVRQAPGKGLEYIGVISSSGSSYYPSWAKGRFTISRDSSKNTVYLQMGSLRAEDMAVYFCARVQFYVGYAVYGYGIIDRLDLWGQGTLVTVSS VL: DAVLTQSPDSLAVSLGERATINCQSSKSVYNNNWLSWYQQKPGQPPKLLIYRASTLESGVPDRFSGSGSGTDFTLTISSLQAEDVAVYFCAGGYSSSSSANAFGGGTKVEIK | 15.3
5 | h10F7.V1 HC V24A (antibody, human IgG1, name in Kabat numbering, V domains shown, Framework variant of h10F7.v1 (human IgG1)) VH: EQQLVESGGGLVQPGGSLRLSCAASGFSLSGYAMSWVRQAPGKGLEYIGVISSSGSSYYPSWAKGRFTISKDSSKNTVYLQMGSLRAEDMAVYFCARVQFYVGYAVYGYGIIDRLDLWGQGTLVTVSS VL: DAVLTQSPDSLAVSLGERATINCQSSKSVYNNNWLSWYQQKPGQPPKLLIYRASTLESGVPDRFSGSGSGTDFTLTISSLQAEDVAVYFCAGGYSSSSSANAFGGGTKVEIK | 9.4
6 | h10F7.V1 HC V78L (antibody, human IgG1, name in Kabat numbering, V domains shown, Framework variant of h10F7.v1 (human IgG1)) VH: EQQLVESGGGLVQPGGSLRLSCAVSGFSLSGYAMSWVRQAPGKGLEYIGVISSSGSSYYPSWAKGRFTISKDSSKNTLYLQMGSLRAEDMAVYFCARVQFYVGYAVYGYGIIDRLDLWGQGTLVTVSS VL: DAVLTQSPDSLAVSLGERATINCQSSKSVYNNNWLSWYQQKPGQPPKLLIYRASTLESGVPDRFSGSGSGTDFTLTISSLQAEDVAVYFCAGGYSSSSSANAFGGGTKVEIK | 5.1
7 | h10F7.V1 HC S73N (antibody, human IgG1, name in Kabat numbering, V domains shown, Framework variant of h10F7.v1 (human IgG1)) VH: EQQLVESGGGLVQPGGSLRLSCAVSGFSLSGYAMSWVRQAPGKGLEYIGVISSSGSSYYPSWAKGRFTISKDNSKNTVYLQMGSLRAEDMAVYFCARVQFYVGYAVYGYGIIDRLDLWGQGTLVTVSS VL: DAVLTQSPDSLAVSLGERATINCQSSKSVYNNNWLSWYQQKPGQPPKLLIYRASTLESGVPDRFSGSGSGTDFTLTISSLQAEDVAVYFCAGGYSSSSSANAFGGGTKVEIK | 7.6
8 | h10F7.V1 HC Q2V (antibody, human IgG1, name in Kabat numbering, V domains shown, Framework variant of h10F7.v1 (human IgG1)) VH: EVQLVESGGGLVQPGGSLRLSCAVSGFSLSGYAMSWVRQAPGKGLEYIGVISSSGSSYYPSWAKGRFTISKDSSKNTVYLQMGSLRAEDMAVYFCARVQFYVGYAVYGYGIIDRLDLWGQGTLVTVSS VL: DAVLTQSPDSLAVSLGERATINCQSSKSVYNNNWLSWYQQKPGQPPKLLIYRASTLESGVPDRFSGSGSGTDFTLTISSLQAEDVAVYFCAGGYSSSSSANAFGGGTKVEIK | 5.9

Next, values leading:

Row | Kd [nM] | Binder
9 | 4.5 | h13B4.V1 HC F91Y (antibody, name in Kabat numbering, V domains shown, Framework variant of h13B4.v1 (human IgG1)) VH: EQQLVESGEGLVQPGGSLRLSCAVSGFSLSSYAMGWVRQAPGKGLEWIGIINSYGNTYYANWAKGRFTISRDSSKNTVYLQMGSLRAEDMAVYYCARDPGVSSNLWGPGTLVTVSS VL: DVQMTQSPSTLSASVGDRVTITCQASQNIYSGLAWYQQKPGKPPKLLIYGASKLASGVPSRFSGSGSGTEFTLTISSLQPDDFATYYCQATYYSSNSVAFGGGTKVEIK
10 | 4.7 | h13B4.V1 HC S73N (antibody, human IgG1, name in Kabat numbering, V domains shown, Framework variant of h13B4.v1 (human IgG1)) VH: EQQLVESGEGLVQPGGSLRLSCAVSGFSLSSYAMGWVRQAPGKGLEWIGIINSYGNTYYANWAKGRFTISRDNSKNTVYLQMGSLRAEDMAVYFCARDPGVSSNLWGPGTLVTVSS VL: DVQMTQSPSTLSASVGDRVTITCQASQNIYSGLAWYQQKPGKPPKLLIYGASKLASGVPSRFSGSGSGTEFTLTISSLQPDDFATYYCQATYYSSNSVAFGGGTKVEIK
11 | 5.8 | h13B4.V1 HC I48V (antibody, human IgG1, name in Kabat numbering, V domains shown, Framework variant of h13B4.v1 (human IgG1)) VH: EQQLVESGEGLVQPGGSLRLSCAVSGFSLSSYAMGWVRQAPGKGLEWVGIINSYGNTYYANWAKGRFTISRDSSKNTVYLQMGSLRAEDMAVYFCARDPGVSSNLWGPGTLVTVSS VL: DVQMTQSPSTLSASVGDRVTITCQASQNIYSGLAWYQQKPGKPPKLLIYGASKLASGVPSRFSGSGSGTEFTLTISSLQPDDFATYYCQATYYSSNSVAFGGGTKVEIK
12 | 4.2 | h13B4.V1 HC P105R (antibody, name in Kabat numbering, V domains shown, Framework variant of h13B4.v1 (human IgG1)) VH: EQQLVESGEGLVQPGGSLRLSCAVSGFSLSSYAMGWVRQAPGKGLEWIGIINSYGNTYYANWAKGRFTISRDSSKNTVYLQMGSLRAEDMAVYFCARDPGVSSNLWGRGTLVTVSS VL: DVQMTQSPSTLSASVGDRVTITCQASQNIYSGLAWYQQKPGKPPKLLIYGASKLASGVPSRFSGSGSGTEFTLTISSLQPDDFATYYCQATYYSSNSVAFGGGTKVEIK
13 | 4.5 | h13B4.V1 HC Q2V (antibody, human IgG1, name in Kabat numbering, V domains shown, Framework variant of h13B4.v1 (human IgG1)) VH: EVQLVESGEGLVQPGGSLRLSCAVSGFSLSSYAMGWVRQAPGKGLEWIGIINSYGNTYYANWAKGRFTISRDSSKNTVYLQMGSLRAEDMAVYFCARDPGVSSNLWGPGTLVTVSS VL: DVQMTQSPSTLSASVGDRVTITCQASQNIYSGLAWYQQKPGKPPKLLIYGASKLASGVPSRFSGSGSGTEFTLTISSLQPDDFATYYCQATYYSSNSVAFGGGTKVEIK
14 | 4.6 | h13B4.V1 LC P43A (antibody, human IgG1, name in Kabat numbering, V domains shown, Framework variant of h13B4.v1 (human IgG1)) VH: EQQLVESGEGLVQPGGSLRLSCAVSGFSLSSYAMGWVRQAPGKGLEWIGIINSYGNTYYANWAKGRFTISRDSSKNTVYLQMGSLRAEDMAVYFCARDPGVSSNLWGPGTLVTVSS VL: DVQMTQSPSTLSASVGDRVTITCQASQNIYSGLAWYQQKPGKAPKLLIYGASKLASGVPSRFSGSGSGTEFTLTISSLQPDDFATYYCQATYYSSNSVAFGGGTKVEIK
15 | 5.6 | h13B4.V1 LC V21 (antibody, human IgG1, V domains shown, Framework variant of h13B4.v1 (human IgG1); read as V2I (V at VL position 2 in v1, I in v16); also called LC V2I) VH: EQQLVESGEGLVQPGGSLRLSCAVSGFSLSSYAMGWVRQAPGKGLEWIGIINSYGNTYYANWAKGRFTISRDSSKNTVYLQMGSLRAEDMAVYFCARDPGVSSNLWGPGTLVTVSS VL: DIQMTQSPSTLSASVGDRVTITCQASQNIYSGLAWYQQKPGKPPKLLIYGASKLASGVPSRFSGSGSGTEFTLTISSLQPDDFATYYCQATYYSSNSVAFGGGTKVEIK
16 | 9.2 | h13B4.V1 HC V78L (antibody, human IgG1, name in Kabat numbering, V domains shown, Framework variant of h13B4.v1 (human IgG1)) VH: EQQLVESGEGLVQPGGSLRLSCAVSGFSLSSYAMGWVRQAPGKGLEWIGIINSYGNTYYANWAKGRFTISRDSSKNTLYLQMGSLRAEDMAVYFCARDPGVSSNLWGPGTLVTVSS VL: DVQMTQSPSTLSASVGDRVTITCQASQNIYSGLAWYQQKPGKPPKLLIYGASKLASGVPSRFSGSGSGTEFTLTISSLQPDDFATYYCQATYYSSNSVAFGGGTKVEIK
17 | 3.1 | h13B4.V1 HC W47Y (antibody, human IgG1, name in Kabat numbering, V domains shown, Framework variant of h13B4.v1 (human IgG1)) VH: EQQLVESGEGLVQPGGSLRLSCAVSGFSLSSYAMGWVRQAPGKGLEYIGIINSYGNTYYANWAKGRFTISRDSSKNTVYLQMGSLRAEDMAVYFCARDPGVSSNLWGPGTLVTVSS VL: DVQMTQSPSTLSASVGDRVTITCQASQNIYSGLAWYQQKPGKPPKLLIYGASKLASGVPSRFSGSGSGTEFTLTISSLQPDDFATYYCQATYYSSNSVAFGGGTKVEIK
18 | 51.5 | h13B4.V1 HC G49S (antibody, human IgG1, name in Kabat numbering, V domains shown, Framework variant of h13B4.v1 (human IgG1)) VH: EQQLVESGEGLVQPGGSLRLSCAVSGFSLSSYAMGWVRQAPGKGLEWISIINSYGNTYYANWAKGRFTISRDSSKNTVYLQMGSLRAEDMAVYFCARDPGVSSNLWGPGTLVTVSS VL: DVQMTQSPSTLSASVGDRVTITCQASQNIYSGLAWYQQKPGKPPKLLIYGASKLASGVPSRFSGSGSGTEFTLTISSLQPDDFATYYCQATYYSSNSVAFGGGTKVEIK
19 | 6 | h13B4.V1 HC V24A (antibody, human IgG1, name in Kabat numbering, V domains shown, Framework variant of h13B4.v1 (human IgG1)) VH: EQQLVESGEGLVQPGGSLRLSCAASGFSLSSYAMGWVRQAPGKGLEWIGIINSYGNTYYANWAKGRFTISRDSSKNTVYLQMGSLRAEDMAVYFCARDPGVSSNLWGPGTLVTVSS VL: DVQMTQSPSTLSASVGDRVTITCQASQNIYSGLAWYQQKPGKPPKLLIYGASKLASGVPSRFSGSGSGTEFTLTISSLQPDDFATYYCQATYYSSNSVAFGGGTKVEIK
